Test results from IntAct's records for PubMed 22705394.

B1: Ras-related protein Rab-21 (Homo sapiens), Q9UL25 (parent)
chain: MAAAGGGGGGAAAAGRAYSFKVVLLGEGCVGKTSLVLRYCENKFNDKHITTLQASFLTKKLNIGGKRVNLAIWDTAGQERFHALGPIYYRDSNGAILVYDITDEDSFQKVKNWVKELRKMLGNEICLCIVGNKIDLEKERHVSIQEAESYAESVGAKHYHTSAKQNKGIEELFLDLCKRMIETAQVDERAKGNGSSQPGTARRGVQIIDDEPQAQTSGGGCCSSG

Variants of: B1
Conditions: with macf1_human MACF1, Q9UPN3

effect of a mutation on the interaction | Variant
decreasing interaction | T33N

Variants of: B1
Conditions: with MACF1, Q9UPN3-1

effect of a mutation on the interaction | Variant
decreasing interaction | T33N
